US20170209564A1

Assays:
Test in all cases: ELISA, coated CR6261, P. pastoris medium
Details in all cases: remark: other sources report otherwise
26H1 = molecular target: 26H1
71D3 = molecular target: 71D3
79F8 = molecular target: 79F8
76D10 = molecular target: 76D10
850 = molecular target: 850
10F9 = molecular target: 10F9
55H2 = molecular target: 55H2
66C8 = molecular target: 66C8
75G5 = molecular target: 75G5
96G5 = molecular target: 96G5
54H4 = molecular target: 54H4
6E12 = molecular target: 6E12
81F11 = molecular target: 81F11
11F4 = molecular target: 11F4
48B10 = molecular target: 48B10
71H2 = molecular target: 71H2
29C2 = molecular target: 29C2
36E4 = molecular target: 36E4
72D4 = molecular target: 72D4
2D9 = molecular target: 2D9
78G2 = molecular target: 78G2
97G10 = molecular target: 97G10
57B8 = molecular target: 57B8
7A7 = molecular target: 7A7
12C6 = molecular target: 12C6
78F11 = molecular target: 78F11
91C4 = molecular target: 91C4
9C10 = molecular target: 9C10
96A7 = molecular target: 96A7
84B8 = molecular target: 84B8
4C1 = molecular target: 4C1
76A10 = molecular target: 76A10
70F6 = molecular target: 70F6
2C4 = molecular target: 2C4
74H9 = molecular target: 74H9
51G10 = molecular target: 51G10
91C8 = molecular target: 91C8
61A9 = molecular target: 61A9
56F4 = molecular target: 56F4
58A5 = molecular target: 58A5
7B6 = molecular target: 7B6
48B11 = molecular target: 48B11
56F8 = molecular target: 56F8
89F11 = molecular target: 89F11
58A11 = molecular target: 58A11
36H2 = molecular target: 36H2
69D2 = molecular target: 69D2
58C8 = molecular target: 58C8

B1: CR6261 (antibody, V domains shown)
VH: EVQLVESGAEVKKPGSSVKVSCKASGGPFRSYAISWVRQAPGQGPEWMGGIIPIFGTTKYAPKFQGRVTITADDFAGTVYMELSSLRSEDTAMYYCAKHMGYQVRETMDVWGKGTTVTVSS
VL: QSVLTQPPSVSAAPGQKVTISCSGSSSNIGNDYVSWYQQLPGTAPKLLIYDNNKRPSGIPDRFSGSKSGTSATLGITGLQTGDEANYYCATWDRRPTAYVVFGGGTKLTVLG
26H1
  CR6261 binding signal: 79700
71D3
  CR6261 binding signal: 1.57e+06
79F8
  CR6261 binding signal: 185000
76D10
  CR6261 binding signal: 114000
850
  CR6261 binding signal: 196000
10F9
  CR6261 binding signal: 166000
55H2
  CR6261 binding signal: 58100
66C8
  CR6261 binding signal: 185000
75G5
  CR6261 binding signal: 1.01e+06
96G5
  CR6261 binding signal: 108000
54H4
  CR6261 binding signal: 292000
6E12
  CR6261 binding signal: 373000
81F11
  CR6261 binding signal: 318000
11F4
  CR6261 binding signal: 151000
48B10
  CR6261 binding signal: 103000
71H2
  CR6261 binding signal: 1.11e+06
29C2
  CR6261 binding signal: 178000
36E4
  CR6261 binding signal: 196000
72D4
  CR6261 binding signal: 330000
2D9
  CR6261 binding signal: 316000
78G2
  CR6261 binding signal: 56700
97G10
  CR6261 binding signal: 253000
57B8
  CR6261 binding signal: 58400
7A7
  CR6261 binding signal: 988000
12C6
  CR6261 binding signal: 289000
78F11
  CR6261 binding signal: 84100
91C4
  CR6261 binding signal: 1.16e+06
9C10
  CR6261 binding signal: 114000
96A7
  CR6261 binding signal: 83300
84B8
  CR6261 binding signal: 582000
4C1
  CR6261 binding signal: 386000
76A10
  CR6261 binding signal: 137000
70F6
  CR6261 binding signal: 419000
2C4
  CR6261 binding signal: 258000
74H9
  CR6261 binding signal: 1.28e+06
51G10
  CR6261 binding signal: 215000
91C8
  CR6261 binding signal: 334000
61A9
  CR6261 binding signal: 383000
56F4
  CR6261 binding signal: 186000
58A5
  CR6261 binding signal: 90700
7B6
  CR6261 binding signal: 60400
48B11
  CR6261 binding signal: 303000
56F8
  CR6261 binding signal: 235000
89F11
  CR6261 binding signal: 84800
58A11
  CR6261 binding signal: 53300
36H2
  CR6261 binding signal: 171000
69D2
  CR6261 binding signal: 446000
58C8
  CR6261 binding signal: 277000
